Assay [1] has as its target T1, human CTLA-4 expressed on cells (293T cells stably transfected with human CTLA-4); in vitro-activated human … (human, UniProt P16410 36-223). The assay is described as follows: FACS.
For assay [2], the target named is T1, human CTLA-4 expressed on cells (293T …). Description: FACS. The source holds these as a separate data set.

Like-named read-outs stand apart in the source and are kept apart here.

B1: 5-B07 (antibody, V domains shown)
VH: EVQLLESGGGLVQPGGSLRLSCAASGFTFSSYSMNWVRQAPGKGLEWVSAISGSGGSTYYADSVKGRFTISRDNSKNTLYLQMNSLRAEDTAVYYCARDRVEMNQWLADWGQGTLVTVSS
VL: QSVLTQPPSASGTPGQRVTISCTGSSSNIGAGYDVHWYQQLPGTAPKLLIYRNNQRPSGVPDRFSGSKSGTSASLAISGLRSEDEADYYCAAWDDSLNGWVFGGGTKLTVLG
In assay [1], B1 returned an EC50 of 150 pM.

B2: 4-E03 (antibody, V domains shown)
VH: EVQLLESGGGLVQPGGSLRLSCAASGFTFSDYYMSWVRQAPGKGLEWVSGISWSSRDKGYADSVKGRFTISRDNSKNTLYLQMNSLRAEDTAVYYCTTDLARYWGQGTLVTVSS
VL: QSVLTQPPSASGTPGQRVTISCTGSSSNIGAGYDVHWYQQLPGTAPKLLIYGNDNRPSGVPDRFSGSKSGTSASLAISGLRSEDEADYYCAVWDDSLNGVVFGGGTKLTVLG
In assay [1], B2 had an EC50 of 130 pM. This EC50 and that of the molecule before are within 1.5-fold of each other.

B3: 2-C06 (antibody, V domains shown)
VH: EVQLLESGGGLVQPGGSLRLSCAASGFTFSSYAMSWVRQAPGKGLEWVSGISGSGGYIHYADSVKGRFTISRDNSKNTLYLQMNSLRAEDTAVYYCATYSSGLHDAFDIWGQGTLVTVSS
VL: QSVLTQPPSASGTPGQRVTISCTGSSSNIGAGYDVHWYQQLPGTAPKLLIYDNNKRPSGVPDRFSGSKSGTSASLAISGLRSEDEADYYCAAWDDSLNGWVFGGGTKLTVLG
In assay [1], B3 yielded an EC50 of 100 pM.

B4: 2-F09 (antibody, V domains shown)
VH: EVQLLESGGGLVQPGGSLRLSCAASGFTFKAYSMSWIRQAPGKGLEWVSGISNTGGSTDFADSVKGRFTISRDNSKNTLYLQMNSLRAEDTAMYYCARLGYSGYDDRGMDVWGQGTLVTVSS
VL: QSVLTQPPSASGTPGQRVTISCSGSSSNIGSNYVYWYQQLPGTAPKLLIYGNSNRPSGVPDRFSGSKSGTSASLAISGLRSEDEADYYCQSYDSSLSGPVVFGGGTKLTVLG
In assay [2], B4 gave a concentration for a half-maximal effect (EC50) of 190 pM.

The values above are taken from patent publication US20220041723A1 (published 2022).
